Drawing on the supplement of paper PMC12042874, this text covers amyloid nucleation score for 132 substances.

This data set is described as follows: amyloid nucleation score (Sup35N fusion, yeast selection) (log enrichment); library NNK3; higher = more nucleation; inactive = no reads after selection. In short, it runs like this:
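Using DiMSum, nucleation scores were taken as the log enrichment of output over input reads, centred on the mode score of non-aggregating sequences. The input and output reads came from Illumina sequencing of plasmid inserts, with sequences under 100 input reads excluded. The yeast were psi-negative, expressed Sup35N fused to peptides of 20 random codons, were induced with 100 μM copper sulfate for 24 hours, and were grown 7 days at 30°C on medium lacking adenine and uracil.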

± gives the uncertainty stated by the source.

For the substance SLIYTKYLLMYFIILFLDGG, the amyloid nucleation score result was “inactive”.
As for QNSGFWIRMH, the amyloid nucleation score is -1.38 ± 2.4.
Take SRKALVYGSVKRLSIMSAWV: the amyloid nucleation score is -0.626 ± 0.96.
Then DECSAHSSFQLSKSILFGQV, with “inactive”; and STCRWLFNNA, with 0.257 ± 0.16.
As for FVLVN, the amyloid nucleation score result is “inactive”.
With RLASGLNPFYVRG the entry was “inactive”; with CALGEKLFSGSAYMVYPG, “inactive”.
Then SFYRMRVIHSLDYAKVKSTL, with 0.772 ± 0.2.
As to LQYLVNLLMQWVLRKIVQKV, the amyloid nucleation score entry was “inactive”.
SSNDVVTSYRILCKVSTKAT showed an amyloid nucleation score of -0.622 ± 0.66.
Then VNLSFNCWFDVVCVSSRF, with 1.9 ± 0.07; and HYWQYMFYSLHFVYRS, with “inactive”.
With YRLAN the entry was “inactive”; with ITVIGQLIALKQFSTLTRSI, “inactive”; with MRAFIRYCIFVCMSAYRNMV, -0.352 ± 0.73.
Then SLWIYTMSYCLSWNYDCFG, with 0.669 ± 0.17; and VSGSEFLDFKQLVYTLDAAC, with 0.481 ± 0.35.
With LYQRYMDMTSYCS, the amyloid nucleation score result is “inactive”.
Then TCHLPAQSLLFIRCSTKAGV, with “inactive”; and MRIRIPTSNNEGYPIFMSAL, with “inactive”.
With GKFLVFAKVNVMVGCVLLFM the entry was “inactive”; with KSESEGFNNSIRPWCMFCVS, “inactive”.
With SKTPLCMNYFL the entry was “inactive”.
Turning to FIIIVDYSFMPGSRVCMFSW, the amyloid nucleation score result is “inactive”.
Then RFSIPMLQRCLWLTGPVCPI, with “inactive”; and CHMWSEHSTTLMYYSKKY, with 0.199 ± 0.41.
In the case of RWLVT, the amyloid nucleation score entry was “inactive”.
With HNSYRED the entry was “inactive”; with TLFDRFWVLWNEKWESSGKY, “inactive”.
With DLFGCPDLMMYTELIMLYW the entry was “inactive”; with QRNSCLDFMK, “inactive”.
Then ASAYSTYKVERLGFDGVQSS, with “inactive”.
On to NCIECRTDTYW, for which the amyloid nucleation score entry was “inactive”.
As to SVLICINCNVEHV, the amyloid nucleation score was 2.44 ± 0.083.
Then MGNFSFE, with “inactive”; and LFGTFYPFSTTRFNVVKPDG, with “inactive”.
Then IWWNIYCFTVTSSVD, with 2.21 ± 0.095.
Consider AMTCNDYSRYVF, for which the amyloid nucleation score entry is “inactive”.
In the case of AGDLNYRSGLSGRNYARGFT, the amyloid nucleation score entry is “inactive”.
With VDKQPDLIAHRMWTKVG the entry was “inactive”; with GRRYVLEENSVIISWCVIYY, “inactive”; with WPLYGLDWNPLGFNLRWYKF, “inactive”.
Then DPPHWVDFSRFR, with “inactive”; and NTDVVCMLNWLLTW, with “inactive”; and EGILPYLRYLFRNLSVGCCW, with “inactive”.
With TKYCSLPHDQDCVHKFITTV the entry was “inactive”.
As to TLYRGDKTRNFAMGIKLCMT, the amyloid nucleation score result is “inactive”.
With VRVDDKSNCVTRRFKP the entry was “inactive”.
Then LVYSDCHRIISHWFFRYTWQ, with “inactive”; and MALEVFF, with “inactive”; and LPFCLN, with “inactive”.
With KYRQIMNGFKFSRANSFVTV the entry was “inactive”; with LSYSSRTRCMLLSLYWCSIR, “inactive”; with NYGNPRRMVCSEYGWESLCK, “inactive”.
IDVRATNPVRAVETD: the amyloid nucleation score result was “inactive”.
On to TLCSHYYVV, for which the amyloid nucleation score entry is “inactive”.
With EHVWHRCTKVN the entry was “inactive”.
With CGDAPRQVVVGPRYKRSMES the figure was -0.193 ± 0.65; with FLFSWEKFVCLCCILY, 0.32 ± 0.49.
Then LCHICDAVTSYLLP, with -0.406 ± 1.
Consider SVKNWPNVN, for which the amyloid nucleation score entry was “inactive”.
Turning to IRDASWTKNLEFECLLFKPS, the amyloid nucleation score result was “inactive”.
With INVVSEFGFGLQSTFRSDLV the entry was “inactive”; with YLFSELYMLNLSRFAK, “inactive”; with IQFPDQ, “inactive”.
With MLHASV the entry was “inactive”; with ISHFTARFVSPPMQWLRTCF, “inactive”; with RNSSYYLMASVDCVRFH, “inactive”.
Regarding HKVQESAY, the amyloid nucleation score result is “inactive”.
Then YGFNNWYKPSDLSRTPSESG, with “inactive”; and LFTLWVMRFEFWYSCFFVSV, with “inactive”.
With LFLIGLLGRCDGDFYCIYYT the figure was 1.04 ± 0.21.
With TGSSTDLSNYNGLGYLLNNS the figure was 0.479 ± 0.2; with TFLYFNVLRIHFVASS, “inactive”.
Take NSVGFACKEFMHVTAQTHKM: the amyloid nucleation score result was “inactive”.
Then CRLVINNYMSR, with 2.83 ± 0.065; and MLSDSLHHSSNIVTLVTRGS, with “inactive”; and RCIMRYCAKALCKVICSQWL, with “inactive”.
Then GWLYYQLNLDNTSVRQHWSV, with 0.587 ± 0.24; and PNRVGAVPGG, with “inactive”.
Regarding FYLCKRMNGSWNTLISV, the amyloid nucleation score entry is “inactive”.
Then TYFVVDGYVGMFCLIGDISS, with 2.69 ± 0.052; and LVVNRDYFCRSVGPIVLLEP, with “inactive”.
Regarding CNRVPVFFMFYVEQGVLRWN, the amyloid nucleation score is 2.13 ± 0.081.
Then SEIKYSYSYMRFLNCTETSN, with “inactive”; and RRRFCVKGSPGVRFVEWTLR, with -0.696 ± 1.1; and GVNCLSLGSKIICGSTGWFL, with 2.47 ± 0.087.
For LIDSADWRCVMVVIRLGRCR, the amyloid nucleation score entry was “inactive”.
Take NTVLATYRTNAVFGKTTHYN: the amyloid nucleation score result was “inactive”.
With SSDQRASPGWGFLFHKCAQV the entry was “inactive”; with SRMSGLWD, “inactive”; with NFFNLLGMKLVR, “inactive”.
Then GVNDRGNKRYAPYKTWLRLE, with “inactive”; and GYAISRFVFDTFRIFAVL, with “inactive”; and TSFWGGALEDSATITLECWF, with -0.24 ± 1.3.
With IYVTIEFASIVCSCWESLDR the figure was -0.091 ± 0.8; with SEPLYSVVLSDMDELWHCL, “inactive”.
Consider DRNLDVPCLDVLRSMLDVCN, for which the amyloid nucleation score was -0.464 ± 0.96.
Then FFLAASPISRNWWSSSLGHS, with “inactive”; and YVCLYEDLTYIA, with “inactive”.
Consider DSLTDVMTWELWDIYHVKHE, for which the amyloid nucleation score entry was “inactive”.
With DMWYRYYMSLGSCKRGSVWK the entry was “inactive”; with LYLRV, “inactive”.
Substance SCFCMKLSLFYGAIN had an amyloid nucleation score of 0.675 ± 0.51.
Take SRYLLADSFFRASAVWDVSE: the amyloid nucleation score result is “inactive”.
With LFFFMALRVGLPNNTNMGMK the entry was “inactive”; with IAPVFWITLYHNFTSRIDRF, 1.44 ± 0.14; with IKQDVASSVFM, “inactive”.
With VNLNKGLRWNYFGDDMKPHR the figure was 1.19 ± 0.073.
Then FKFVQDAHQNLGVIRSYRRS, with “inactive”; and YMCKCSYVEMTHSA, with “inactive”; and VEYLFVNCWSTE, with “inactive”.
As for TWCSIMDLLVQLRVRNLFGK, the amyloid nucleation score entry is “inactive”.
Then YMRAIHRCCAYLVRGLGSGT, with “inactive”; and RLHRLKDFTRNGCEYSSHLS, with “inactive”; and VCGAVSKPLWIRCTVDPRGR, with “inactive”.
Then NVYIVFFNFKTQ, with 2.34 ± 0.058; and LLRVSYFIVLRTLN, with “inactive”.
With VERSSLVEWSCDRVSKWYFV the figure was 0.298 ± 0.74.
With HRRSMQLWG, the amyloid nucleation score entry was “inactive”.
With FTRAAREGFFDLY the figure was -0.04 ± 0.66; with LIVLVMHKLYKLWSGRLRVV, “inactive”; with WCSSWSRILTQVACVRHRKW, 0.926 ± 0.14.
Then ISRFCYSSINRRGFLGNFVF, with “inactive”.
Then QSDRVPRILLGKRFKSPLSF, with “inactive”; and DIVILSTSASSTS, with “inactive”.
KWSNQGRCEHSVNMFHREWR had an amyloid nucleation score of 1.64 ± 0.09.
Then DLNMGYKFLISKYSWPVYPM, with “inactive”; and SLGYHLYRHARVCYRMCDIW, with “inactive”; and ESTYVDGRNTVNDYCPNSTI, with “inactive”.
With WLIKYPGYW the entry was “inactive”.
